The text below walks through data of PMC10899662, “TopBP1 utilises a bipartite GINS binding mode to support genome replication” (Nature Communications, 2024).

Numbering of substitutions follows the chain as printed.

Test [1] deals with GINS lacking the Psf1-B domain (Psf1-ΔB). In words: Pulldown of TopBP1 versions by GINS with Psf1-ΔB compared to GINS-WT. Type of test: binding. Particulars: GINS-WT vs Psf1-ΔB. From the text: (§1) We next explored the relationship between the interactions of TopBP1 and DNA Polε with GINS. These proteins are part of the recently characterised metazoan pre-LC[37]–[40]. […] These pre-LC models are less informative on how DNA Polε affects the TopBP1-GINS interaction. The N-terminal region of PolE2 (PolE2-N; aa 1–75) binds GINS mainly at the Psf1-B domain, with minor interactions with residues in the A-domain that partly overlap with the TopBP1-BRCT4 interaction surface (Fig. 7a–c). To test if the Psf1-B domain is required for TopBP1 interaction, we did pulldowns with GINS lacking the Psf1-B domain (Psf1-ΔB). […] This could be due to a residual affinity of BRCT4 for Psf1-ΔB or due to the GINI-Psf1 interaction. We therefore analysed specifically the interaction of GINS with BRCT4 using the TopBP1-Gcc mutant. […] The moderate effect of the B domain deletion on BRCT4 binding is consistent with the partial overlap of the BRCT4 and PolE2 binding sites in Psf1. […] Together, in pre-LC, TopBP1 likely binds GINS through the GINI region, potentially also involving a residual affinity of BRCT4 for GINS despite the presence of DNA Polε. TopBP1 and GINS are likely further stabilised in pre-LCs via their interactions with DONSON[37],[38],[41]. […]

A further test deals with GINS. Kind of test: Competition of PolE2-N with TopBP1 for immobilised GINS. It is filed as binding. Particulars: 150 mM NaCl; ten times molar excess of PolE2-N.
Description: as §1

B1: TopBP1-BRCT0-5-WT: recombinant TopBP1 amino acids 1–766, strep-tagged (protein)
chain: MSRNDKEPFFVKFLKSSDNSKCFFKALESIKEFQSEEYLQIITEEEALKIKENDRSLYICDPFSGVVFDHLKKLGCRIVGPQVVIFCMHHQRCVPRAEHPVYNMVMSDVTISCTSLEKEKREEVHKYVQMMGGRVYRDLNVSVTHLIAGEVGSKKYLVAANLKKPILLPSWIKTLWEKSQEKKITRYTDINMEDFKCPIFLGCIICVTGLCGLDRKEVQQLTVKHGGQYMGQLKMNECTHLIVQEPKGQKYECAKRWNVHCVTTQWFFDSIEKGFCQDESIYKTEPRPEAKTMPNSSTPTSQINTIDSRTLSDVSNISNINASCVSESICNSLNSKLEPTLENLENLDVSAFQAPEDLLDGCRIYLCGFSGRKLDKLRRLINSGGGVRFNQLNEDVTHVIVGDYDDELKQFWNKSAHRPHVVGAKWLLECFSKGYMLSEEPYIHANYQPVEIPVSHKPESKAALLKKKNSSFSKKDFAPSEKHEQADEDLLSQYENGSSTVVEAKTSEARPFNDSTHAEPLNDSTHISLQEENQSSVSHCVPDVSTITEEGLFSQKSFLVLGFSNENESNIANIIKENAGKIMSLLSRTVADYAVVPLLGCEVEATVGEVVTNTWLVTCIDYQTLFDPKSNPLFTPVPVMTGMTPLEDCVISFSQCAGAEKESLTFLANLLGASVQEYFVRKSNAKKGMFASTHLILKERGGSKYEAAKKWNLPAVTIAWLLETARTGKRADESHFLIENSTKEERSLETEITNGINLNSDTAEHP
modifications: left off: Strep, C-terminal, kept
notes: recombinant TopBP1 amino acids 1–766, strep-tagged
Regarding B1, in test [1], the “effect of Psf1-B domain deletion on TopBP1 binding, 100 mM NaAc” value is given as “the B domain had no influence”. The “competition by PolE2-N in stringent pulldown conditions” value in the test on GINS was “largely resistant to PolE2 competition”.

B2: TopBP1-B4mut: Val590, Thr606 and Val610 mutated to glutamate, arginine and glutamate (protein)
chain: B1 chain with V590E, T606R, V610E
modifications: left off: Strep, C-terminal, kept
As for B2, the “effect of Psf1-B domain deletion on TopBP1 binding, 100 mM NaAc” value in test [1] is listed as “the B domain had no influence”.
